Measurements as given in the supplement of paper PMC9732359.
± gives the uncertainty stated by the source.

Assay: protein stability index of a GFP-peptide fusion (yeast GPS) (PSI 1-4); higher = more stable; sorted into four equal gates, so the index is relative within each strain
Outline: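 Sequencing reads from sorted gates were used to score each peptide. The library consisted of tiled 17-residue yeast protein peptides fused downstream of GFP on a Cherry-expressing plasmid, pooled and carried in yeast. Mid-log cultures in leucine-free medium were split into four equal gates by GFP/Cherry ratio, and each gate's plasmids were PCR-amplified and Illumina-sequenced. The protein stability index adds up, over all gates, the read frequency multiplied by the gate number.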

Sequence	protein stability index (doa10∆)	protein stability index (pdr5∆)	protein stability index (san1∆)	protein stability index (ubr1∆)
SPSYSPTSPNYSPTSPS [RPO21]	2.85 ± 0.039	2.94 ± 0.04	2.97 ± 0.033	3.024 ± 0.026
VGEMKLLKKKDDPSKVR [YLR335W/NUP2]	3.29 ± 0.08	3.32 ± 0.15	2.98 ± 0.091	2.74 ± 0.16
EELKDSEINEILARNDE [SNF2]	3.2 ± 0.18	3.55 ± 0.12	2.66 ± 0.13	3.32 ± 0.089
SKSMKFSRRFDCRDVYC [CSN9]	2.7 ± 0.07	2.64 ± 0.09	2.58 ± 0.088	2.66 ± 0.051
QRDFRKHGAVHMSTYLK [RPL21B]	2.65 ± 0.048	2.42 ± 0.042	2.48 ± 0.054	2.8 ± 0.038
DKFSPEDGLGPLMAKSV [ARP7]	3.02 ± 0.11	3.06 ± 0.11	2.66 ± 0.13	3.39 ± 0.097
TRLKSLLKPFHVKVNDK [SIR3]	2.65 ± 0.093	2.96 ± 0.082	2.79 ± 0.075	2.81 ± 0.052
QEYLNPVIDTQIANEFN [YDL116W/NUP84]	2.85 ± 0.053	2.96 ± 0.058	2.71 ± 0.046	2.88 ± 0.052
NRKRIVTLRKSLYTNTS [RPL3]	2.66 ± 0.069	2.27 ± 0.065	1.66 ± 0.087	1.73 ± 0.076
LWDVATGETYQRFVGHK [ASC1]	2.98 ± 0.19	3.42 ± 0.17	1.59 ± 0.17	3.4 ± 0.094
LSCEKITHYAVRGGNIE [RRI1]	2.37 ± 0.062	2.3 ± 0.078	2.51 ± 0.08	2.19 ± 0.047
GRVYRPLFIVEDDESLG [RPB2]	1.71 ± 0.063	1.8 ± 0.087	1.59 ± 0.1	1.69 ± 0.034
YMHDTELNYFVGCKNLE [GRR1]	2.92 ± 0.085	2.78 ± 0.081	3.08 ± 0.079	3.21 ± 0.046
ARLAILKERAKNISSQL [YGR119C/NUP57]	2.24 ± 0.079	2.77 ± 0.069	2.51 ± 0.072	2.51 ± 0.052
NSGNSNSNSNQQSTDAD [RPT1]	2.59 ± 0.081	2.48 ± 0.081	2.48 ± 0.09	2.64 ± 0.052
GVEEVEGEYELTEAVED [RPL5]	3.36 ± 0.11	3.45 ± 0.13	3.24 ± 0.14	3.24 ± 0.2
IRVLFKENGQLIGAATK [SEC65]	1.97 ± 0.068	2.12 ± 0.11	2.17 ± 0.12	2.38 ± 0.079
LYQDMAARHRARFRSIH [RPL20A]	2.81 ± 0.071	2.71 ± 0.048	2.96 ± 0.051	2.95 ± 0.07
LHNLNEYQIVYYNPQAG [RGR1]	1.41 ± 0.27	2.44 ± 0.15	2.1 ± 0.11	–
FDVVLTTFEYIIKERAL [SNF2]	2.12 ± 0.067	2.36 ± 0.071	2.05 ± 0.088	2.14 ± 0.071
EKYAAAAPAATSAASGD [RPP0]	2.47 ± 0.097	2.15 ± 0.074	1.88 ± 0.13	2.78 ± 0.048
TASKIIVIDVDYNKKQD [MED1]	2.21 ± 0.083	2.58 ± 0.081	2.17 ± 0.055	2.65 ± 0.065
EANWPLPVNIRRIIQNA [RPO21]	1.77 ± 0.088	1.37 ± 0.089	–	1.04 ± 0.064
GLVKQHLDSFNYFVDTD [RET1]	3.46 ± 0.17	3.05 ± 0.097	2.97 ± 0.11	3.36 ± 0.075
KIVEIDRHIGCAMSGLT [PUP2]	1.82 ± 0.07	2.32 ± 0.091	2 ± 0.14	2.17 ± 0.06
GSTTIEKKNDENSTSNS [YLR335W/NUP2]	3.1 ± 0.085	3.18 ± 0.097	3.18 ± 0.06	3.17 ± 0.044
NVLLLDSNGDFNEDQLF [RRP46]	3.17 ± 0.064	3.04 ± 0.054	3.32 ± 0.055	3.17 ± 0.044

Sequence	protein stability index (doa10∆)	protein stability index (pdr5∆)	protein stability index (san1∆)	protein stability index (ubr1∆)
DTPEGEACGLVKNLALM [RET1]	2.14 ± 0.098	2.01 ± 0.13	3.21 ± 0.1	1.71 ± 0.28
SGDNHTQQSHEQQPEQP [RPT4]	2.96 ± 0.052	3.15 ± 0.064	3.03 ± 0.06	2.95 ± 0.049
RIARALKQEGAANKTVV [RPL18A]	3.44 ± 0.22	3.39 ± 0.095	2.95 ± 0.15	3.33 ± 0.052
IHGELKTYKEGINKNEE [SMC1]	2.94 ± 0.075	3.09 ± 0.051	2.87 ± 0.055	3.01 ± 0.046
DILLRLCVLWDDLQSSV [YCG1]	1.65 ± 0.067	1.4 ± 0.051	1.72 ± 0.087	2.11 ± 0.07
DINTVNTNLMNGVNVQI [GRR1]	3.21 ± 0.097	3 ± 0.087	2.98 ± 0.074	3.06 ± 0.073
ALSGLYYKNFHNSVKRY [SNM1]	1.59 ± 0.27	–	1.17 ± 0.17	1.22 ± 0.093
ASTVAKTAPIQESFVPN [YOR098C/NUP1]	2.97 ± 0.16	2.83 ± 0.11	2.94 ± 0.3	3.21 ± 0.061
INQEKPVKLDENSANST [SIR4]	–	–	3.51 ± 0.18	–
RSLLLSRVRADDLSTRF [RRP43]	2.89 ± 0.21	3.63 ± 0.17	–	2.92 ± 0.16
DEDESQNIAQSSNQSAP [HRT1]	2.99 ± 0.07	3.15 ± 0.074	3.14 ± 0.051	3.19 ± 0.043
ELQGYIELSVPDRQSMD [SRB5]	1.36 ± 0.23	–	–	1.17 ± 0.21
LAHSQHRCAIRSGALIK [SSN2]	1.5 ± 0.058	1.22 ± 0.046	1.16 ± 0.13	1.16 ± 0.037
WKPNPSYDVENVNSRNQ [SRB5]	2.96 ± 0.084	2.95 ± 0.14	3 ± 0.11	3.3 ± 0.085
SKFSKQQAKGAFQKVAA [RPL24A]	2.21 ± 0.065	2.7 ± 0.078	2.9 ± 0.05	2.54 ± 0.05
TPESVKPANASHAIRLG [RGR1]	2.63 ± 0.049	2.42 ± 0.037	2.98 ± 0.045	2.47 ± 0.039
NKRLSRGKKGLKKKVVD [RPS1B]	–	3.44 ± 0.15	2.75 ± 0.24	3.38 ± 0.14
GTNPLSSDGAYTEQFQH [SSN2]	3.23 ± 0.093	3.09 ± 0.075	2.96 ± 0.055	3.06 ± 0.062
RSPTRRLELLQLSPVKN [SMC4]	1.38 ± 0.26	1.64 ± 0.19	–	1.68 ± 0.13
QWTGGRGGGHHSFEDAH [FAS1]	3.21 ± 0.24	3.47 ± 0.2	–	–
GLHPFEVAQLGSLACDT [RPB4]	1.9 ± 0.15	2.25 ± 0.18	–	2.33 ± 0.08
HPKIVKKHTKKFKRHHS [RPL32]	2.74 ± 0.054	3.06 ± 0.059	2.66 ± 0.045	3.02 ± 0.037
LPSDRCSKAMGDLASLV [RPP1]	–	–	3.15 ± 0.12	–
QEEFVQFLQLDNDGFSF [ECM29]	1.9 ± 0.087	3.13 ± 0.12	1.93 ± 0.11	2.41 ± 0.11
IDGKVIQAGKFDNKSTS [SNF2]	1.36 ± 0.057	1.42 ± 0.064	1.9 ± 0.21	1.95 ± 0.089
VYSVDPLEKITDAYLDQ [PRP8]	3.33 ± 0.17	3.11 ± 0.15	2.98 ± 0.1	3.15 ± 0.15
